The values that follow come from US20210163536A1.

Broadly, the Ki is a dissociation constant, usually derived from enzyme kinetics or from competition with a known ligand.

Assay [1] has as its target human melanocortin-3 receptor (human) (UniProt P41968). The experiment in a line: cell-based or functional assay.
The target of assay [2] is human melanocortin-4 receptor (human) (UniProt P32245). Kind of assay: cell-based or functional assay.
In assay [3] the target is human melanocortin-3 receptor (human) (UniProt P41968). The experiment in a line: competition with [125I]-NDP-alpha-MSH, CHO-K1 cell membranes.
Chain of human melanocortin-3 receptor (human) (P41968 whole entry): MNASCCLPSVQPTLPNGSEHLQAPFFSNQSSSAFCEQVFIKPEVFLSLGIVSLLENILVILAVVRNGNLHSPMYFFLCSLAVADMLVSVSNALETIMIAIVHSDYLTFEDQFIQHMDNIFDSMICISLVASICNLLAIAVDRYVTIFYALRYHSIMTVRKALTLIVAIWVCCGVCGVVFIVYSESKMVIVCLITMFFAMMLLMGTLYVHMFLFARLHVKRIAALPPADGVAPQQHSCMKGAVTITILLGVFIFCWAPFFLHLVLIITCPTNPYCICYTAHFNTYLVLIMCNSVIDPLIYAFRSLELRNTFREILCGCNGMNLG
Assay [4] addresses human melanocortin-1 receptor (human) (UniProt Q01726). Described as above.
The target of assay [5] is human melanocortin-4 receptor (human) (UniProt P32245). The description is as above.

Bridges are numbered along the chain shown (N, C = ends). [ ]: non-standard residue; d: D form.

Chain of human melanocortin-4 receptor (human) (P32245 whole entry): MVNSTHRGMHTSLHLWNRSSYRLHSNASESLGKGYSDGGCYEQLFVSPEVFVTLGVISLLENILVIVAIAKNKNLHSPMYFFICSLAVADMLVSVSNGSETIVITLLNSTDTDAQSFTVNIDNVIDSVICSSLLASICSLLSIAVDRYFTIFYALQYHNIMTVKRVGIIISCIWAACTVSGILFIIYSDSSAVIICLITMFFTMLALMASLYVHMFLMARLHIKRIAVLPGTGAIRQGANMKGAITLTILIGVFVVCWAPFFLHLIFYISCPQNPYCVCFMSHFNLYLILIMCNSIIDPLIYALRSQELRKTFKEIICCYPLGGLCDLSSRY
Chain of human melanocortin-1 receptor (human) (Q01726 whole entry): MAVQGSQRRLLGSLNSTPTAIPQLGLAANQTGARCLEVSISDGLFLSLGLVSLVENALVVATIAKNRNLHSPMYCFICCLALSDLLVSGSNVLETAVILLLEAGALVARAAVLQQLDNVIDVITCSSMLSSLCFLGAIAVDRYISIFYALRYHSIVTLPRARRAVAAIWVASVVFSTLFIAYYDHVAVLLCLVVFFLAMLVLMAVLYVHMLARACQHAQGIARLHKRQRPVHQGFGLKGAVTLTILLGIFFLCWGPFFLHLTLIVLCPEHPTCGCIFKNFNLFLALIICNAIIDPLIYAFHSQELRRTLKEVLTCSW

B1: cyclo[Hydantoin(C(O)-(Glu-D-Ala))-His-D-Phe-Arg-Trp-Lys]-NH2 (peptide)
peptide: H[dF]RWK-NH2
modifications: lactam N-5; not fully specified (N-terminus); printed as cyclo[Hydantoin(C(O)-(Glu-D-Ala))-His-D-Phe-Arg-Trp-Lys]-NH2; also: hydantoin ring from Glu and D-Ala with C(O) joining their backbone nitrogens
Consider B1, for which the values for the EC50, intracellular cyclic AMP (cAMP) levels in assay [1] and in assay [2] were 22.3 nM and 3.62 nM, respectively. The Ki is 1920 nM in assay [3], 72.6 nM in assay [4] and 45.2 nM in assay [5].
